*1 amine or outer side, *2 acyl side, *3 side chain or, on linkers, in order; H or OH if unused. Where a SMILES comes first, the peptide text is derived from it. Bridges are numbered along the chain shown (N, C = ends). Roman numbers before positions name the chains, in order. [ ]: non-standard residue; d: D form. The star is where a group is joined. X2 = O=C(CCCCCN1C(=O)CC([*:2])C1=O)NCCOCCOCCOCCOCCOCCOCCOCCOCCC(=O)[*:1]; Hexanoyl(6-succinimido-3yl) = O=C1CC([*:1])C(=O)N1CCCCCC(=O)[*:2]; Dolaproine = CO[C@@H]([C@@H]1CCCN1)[C@@H](C)C(=O)O; Dil = CC[C@H](C)[C@H](NC)[C@@H](CC(=O)O)OC; PABC = O=C(OCc1ccc(N[*:1])cc1)[*:2]; X1 = C[C@@H](N*)[C@@H](O)c1ccccc1; Cit = NC(=O)NCCC[C@H](N)C(=O)O; NMeV = CN[C@H](C(=O)O)C(C)C; AEA = NCCOCC(=O)O
What was measured:
[1] = tested on: tubulin; details: cited from earlier work
Source text: In the progression of cancers, a matrix metalloproteinase (MMP) remodeling of the extracellular tumor environment is essential for invasion and metastases. The fundamental role that MMPs play in tumor spread has made them a focus for developing new cancer therapies. While inhibitors to MMPs have been developed, pharmacologically blocking MMPs has not proven effective in patients. Alternative to enzymatic inhibition, tumor MMP activity can be therapeutically co-opted for targeting drug delivery. An example of this strategy involves cloaking cell-penetrating peptide–drug c ...

[2] = Tissue drug measurement (MMAE biodistribution) after IV cRGD-ACPP-MMAE; type: in vivo; details: mice with HCT116 xenografts, 10 nmoles IV
Protocol: To determine tissue specificity and the kinetics of ACPP targeting in human and murine tumor model systems, we used complementary approaches, measuring drug concentrations in harvested tissues and non-invasive fluorescence whole-animal imaging. First, the pharmacokinetics of cRGD-ACPP-MMAE drug accumulation were measured in tumor and normal tissues from mice with human HCT116 xenografts. Tumor-bearing mice were intravenously (IV) injected with cRGD-ACPP-MMAE (Figure 3A). Blood, tumor, and normal tissues (heart, kidney, liver, and muscle) were collected 2, 6, and 24 h after IV injection and assayed for MMAE by LC–MS/MS (Figure 3C). […] To determine the spatial specificity of ACPP drug delivery, normal muscle tissue adjacent to the tumor xenograft was harvested.
Mice with established subcutaneous HCT116 tumors were intravenously injected through the tail vein with 10 nmoles of cRGD-ACPP-MMAE. Tumors, blood, and normal tissues were harvested at indicated time points and homogenized in 10 volumes of PBS with a point sonicator (amplitude range 5–15%). Homogenates were centrifuged ([…], 10 min) with supernatants collected and diluted 2-fold by the addition of 2% acetic acid in acetonitrile, followed by centrifugation (14× g, 10 min). MMAE concentration was measured by using LC–MS/MS with a Luna-2 C18 column (Phenomenex, Torrance, CA, USA) and Agilent Trap XCT mass spectrophotometer (Agilent), with extracted ion currents at 686.4 and 506.4 integrated and combined to improve sensitivity. Ion currents were fitted to a standard curve to determine tissue drug concentrations.

[3] = Mouse body weights in the therapy studies (safety and tolerability); type: in vivo, mice; details: LL2 and B16 therapy studies, total 40 nmoles IV, weighed weekly
Protocol: To assess the safety and tolerability of systemically administered ACPP-MMAE conjugate, mice weights were measured weekly in the two therapy studies above.
(A) Mice bearing LL2 tumors IV injected with vehicle (untreated) or cRGD-ACPP-MMAE (20 nmoles on days 4 and 6). Individual tumor volumes plotted, left panel. Average tumors volumes on day 18 plotted as mean ± SEM, right panel (n = 10 for untreated, n = 6 for cRGD-ACPP-MMAE). Statistical significance calculated using two-tailed t testing. (B) Mice bearing B16 tumors IV injected with vehicle (untreated) or cRGD-ACPP-MMAE (20 nmoles on days 3 and 5). Individual tumor volumes plotted, left panel. Average tumors volumes on day 19 plotted as mean ± SEM, right panel (n = 10 for untreated, n = 6 for cRGD-ACPP-MMAE). Statistical significance calculated using two-tailed t testing. (C) Mouse body weights of mice from experiments in (A,B), plotted as mean fractional body weight ± SEM.
LL2 and B16 tumor cells were injected subcutaneously into the hindlimbs of 6-week-old female C57BL/6 albino mice in 100 µL of 1:1 Growth Factor Reduced Matrigel (BD) and PBS solution. […] Tumor volumes were measured and calculated using the formula as ½ × Length × Width^2. Body weights were measured weekly to assess general animal health.

Structure (SMILES) | potency for mitotic arrest and cell death [1] | tissue with highest MMAE level at 2 h ([2]; 2 h, LC-MS/MS) | tumor MMAE concentration versus peri-tumoral muscle by 6 h ([2]; 6 h, LC-MS/MS) | tumor MMAE versus normal tissues at 24 h post-injection ([2]; 24 h, LC-MS/MS, one-way ANOVA with Tukey) | MMAE concentration in normal tissues after 6 h post-drug delivery ([2]; LC-MS/MS) | tumor MMAE concentration over 24 h post-injection ([2]; LC-MS/MS) | time of peak MMAE concentration in all normal tissues (heart, kidney, liver, muscle) ([2]; tissues collected 2, 6, 24 h, MMAE by LC-MS/MS) [h] | mouse body weights, control versus treated [3]
CC[C@H](C)[C@@H]([C@@H](CC(=O)N1CCC[C@H]1[C@H](OC)[C@@H](C)C(=O)N[C@H](C)[C@@H](O)c1ccccc1)OC)N(C)C(=O)[C@@H](NC(=O)[C@@H](NC)C(C)C)C(C)C [MMAE, Monomethyl auristatin E] (H-[NMeV]V[Dil][Dolaproine]-X1) | single nanomolar range |  |  |  |  |  |  | 
CC[C@H](C)[C@@H]([C@@H](CC(=O)N1CCC[C@H]1[C@H](OC)[C@@H](C)C(=O)N[C@H](C)[C@@H](O)c1ccccc1)OC)N(C)C(=O)[C@@H](NC(=O)[C@H](C(C)C)N(C)C(=O)OCc1ccc(NC(=O)[C@H](CCCNC(N)=O)NC(=O)[C@@H](NC(=O)CCCCCN2C(=O)CC(SC[C@@H](NC(=O)[C@@H](CCCNC(=N)N)NC(=O)[C@@H](CCCNC(=N)N)NC(=O)[C@@H](CCCNC(=N)N)NC(=O)[C@@H](CCCNC(=N)N)NC(=O)[C@@H](CCCNC(=N)N)NC(=O)[C@@H](CCCNC(=N)N)NC(=O)[C@@H](CCCNC(=N)N)NC(=O)[C@@H](CCCNC(=N)N)NC(=O)[C@@H](CCCNC(=N)N)NC(=O)CNC(=O)[C@H](C)NC(=O)[C@H](CSC)NC(=O)CNC(=O)[C@H](CC(C)C)NC(=O)[C@@H]3CCCN3C(=O)COCCNC(=O)[C@@H](CCC(=O)O)NC(=O)[C@@H](CCC(=O)O)NC(=O)[C@@H](CCC(=O)O)NC(=O)[C@@H](CCC(=O)O)NC(=O)[C@@H](CCC(=O)O)NC(=O)[C@@H](CCC(=O)O)NC(=O)[C@@H](CCC(=O)O)NC(=O)[C@@H](CCC(=O)O)NC(=O)[C@@H](CCC(=O)O)NC(=O)CCOCCOCCOCCOCCOCCOCCOCCOCCNC(=O)CCCCCN3C(=O)CC(SC[C@@H]4NC(=O)[C@@H](Cc5ccccc5)NC(=O)[C@H](CC(=O)O)NC(=O)CNC(=O)[C@H](CCCNC(=N)N)NC4=O)C3=O)C(N)=O)C2=O)C(C)C)cc1)C(C)C (some centres unmarked) [cRGD-ACPP-MMAE, cyclo(RGD)fc-MC-HN-peg8-e9-oPLGC(Me)AG-r9-c-(MC-VC-PABC-MMAE)-CONH2] (I: [dE][dE][dE][dE][dE][dE][dE][dE][dE][AEA]PLGC(Me)AG[dR][dR][dR][dR][dR][dR][dR][dR][dR][dC]-NH2 / II: V[Cit][PABC][NMeV]V[Dil][Dolaproine]-X1 / III: cyclo(RGD[dF]C); linker I:26-II:N via Hexanoyl(6-succinimido-3yl); linker I:N-III:5 via X2) |  | the kidneys had the highest levels of MMAE | higher than the surrounding normal muscle tissue | significantly higher than all normal tissues assayed | rapid decrease | remained relatively constant | 2 | no significant difference

Source: article PMC11643828, “Tumor-Targeted Cell-Penetrating Peptides Reveal That Monomethyl Auristatin E Temporally Modulates the Tumor Immune Microenvironment” (Molecules, 2024)
